System: MS2 coat protein
Assay: apparent KD of MS2 coat protein; designed switch direction (-1 OFF switch, 1 ON switch): -1; higher = weaker reporter binding
How it was run: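 Designed RNA switches sharing common flanks were transcribed on Illumina chips by stalled E. coli RNA polymerase. They were titrated with SNAP-549-labelled MS2 coat protein, from 0.7 or 1.5 nM doubling to 3 µM, in Tris-HCl pH 7.5 buffer with KCl, MgCl2, BSA, DTT, tRNA and Tween-20. Titrations ran without input, with 200 uM small-molecule ligand, or with an oligonucleotide input. The apparent KD of each design is the median over its clusters, after curve-fitting of normalised cluster fluorescence.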

[1] = input ligand: microRNA oligo, concentration not stated
[2] = Eterna round: R95, input ligand: microRNA oligo, concentration not stated
[3] = Eterna round: R95, input ligand: FMN 200 uM
[4] = Eterna round: R95, input ligand: none

Sequence: ACAUGAGGAUCACCCAUGUGACAAGAAUGGCUGACACAGAGAUAGGAUAUAGGUGCAUAUCUAACCUAGAAGGGUCAUGACUGG [Deportation 76 - Jieux - Exclusion NG 3] (Eterna round: R96, puzzle: Exclusion NG 3)
- apparent KD of MS2 coat protein (input ligand: FMN 200 uM): 40.2 nM
- apparent KD of MS2 coat protein [1]: 23.3 nM
- apparent KD of MS2 coat protein (input ligand: none): 26.5 nM

Sequence: UGAAUACGUGUUAGGAUAUGGUUUGGUAUUUUAGAUUAGAAGGGACAUGAGGAUCACCCAUGUAAUUGAUAGGU [-13, -10.4 kcal, 30% A] (Eterna round: R97, puzzle: Brourd's mod of Exclusion 4)
- apparent KD of MS2 coat protein (input ligand: FMN 200 uM): 38 nM
- apparent KD of MS2 coat protein (input ligand: none): 41.9 nM

Sequence: CCAGCGUAUGUUAGGAUAUGCUGGUCCUUGGAUCAGCAGAAGGAACAUGAGGAUCACCCAUGUAGAAUCGUUGG [Mod of JL 15 - Jieux - Brourd's mod of Exclusion 4] (Eterna round: R97, puzzle: Brourd's mod of Exclusion 4)
- apparent KD of MS2 coat protein (input ligand: FMN 200 uM): 35 nM
- apparent KD of MS2 coat protein (input ligand: none): 20.3 nM

Sequence: GCCUCACUUGAGGAUCACCCAAGUCAGGAUAUUCACGGAACUAUGUAGCAGUUCGGCCGGAGAAGGGAUUCGGG [Areses] (Eterna round: R97, puzzle: Exclusion 1)
- apparent KD of MS2 coat protein (input ligand: FMN 200 uM): 88.4 nM
- apparent KD of MS2 coat protein (input ligand: none): 35 nM

Sequence: AUAUUAAUAGUAAGGAUAUGCGUAUAUAUAAUUAUGCAGAAGGUACAUGAGGAUCACCCAUGUAUUAAUGUGUA [LRO-BmodExc4-02-Oppy's Opus] (Eterna round: R97, puzzle: Brourd's mod of Exclusion 4)
- apparent KD of MS2 coat protein (input ligand: FMN 200 uM): 13.5 nM
- apparent KD of MS2 coat protein (input ligand: none): 13 nM

Sequence: ACAUGAGGAUCACCCAUGUCUGGCGGGUCCUCUCCGGCUGUUGAGGAUAUAGUUCGGUAUCCGCGCUAGAAGGUGAGGGCCGGC [Aenatbe mod 20] (Eterna round: R96, puzzle: Exclusion NG 3)
- apparent KD of MS2 coat protein (input ligand: FMN 200 uM): 21.3 nM
- apparent KD of MS2 coat protein [1]: 14.6 nM
- apparent KD of MS2 coat protein (input ligand: none): 16.5 nM

Sequence: ACAUGUUAUGUAGGAUAUUAUACACAUGAGGAUCACCCAUGUAACCGGAGGCUUUACUAUGAGUAUGAGAAGGGUAUGAACAUG [Ex NG2 #65] (Eterna round: R96, puzzle: Exclusion NG 2)
- apparent KD of MS2 coat protein [1]: 64.2 nM

Sequence: ACCUCACAUGAGGAUCACCCAUGUUAGGAUAUCUCGGUGCCCUGCAGGCAGUGGCACCAGAGAAGGAACGUGCA [Anbearqu] (puzzle: Exclusion 1)
- apparent KD of MS2 coat protein [2]: 17.2 nM

Sequence: GGGCGUGAAGGAUAUACAUGAGGAUCACCCAUGUGGGAGGAGAAUGGUGAGGAGGCUGGUAGAAGGUCAGGAGG [JR_Exclusion3_Sub009] (puzzle: Exclusion 3)
- apparent KD of MS2 coat protein [2]: 37.5 nM

Sequence: UCUGCUUUAGGAUAUACGAGAUCCUGCGAUGUACUCUUCGGACAUGAGGAUCACCCAUGUAGAAGGAAAGCAGG [Eternabot (L2) Solution 20] (Eterna round: R97, puzzle: Exclusion 2)
- apparent KD of MS2 coat protein (input ligand: FMN 200 uM): 96.4 nM
- apparent KD of MS2 coat protein (input ligand: none): 12.2 nM

Sequence: UUACGGUAGAUCGUGGCUUUUUGCUCGUCUUGUGCUACAACAUGAGGAUCACCCAUGUAGAGGUGAUCUAUUGUAUU [Grok-var2-20 mod JAL] (puzzle: Sensor v3, turn-off variant 2)
- apparent KD of MS2 coat protein [3]: 51.9 nM
- apparent KD of MS2 coat protein [2]: 17.8 nM
- apparent KD of MS2 coat protein [4]: 74.5 nM

Sequence: CUAUAGUCAGGAUAUCUAAACAGGCCGAGCGUUCGCAGUCGAGAGAAGGGACAUGAGGAUCACCCAUGUCCUCC [Eternabot (L1) Solution 6] (Eterna round: R97, puzzle: Exclusion 4)
- apparent KD of MS2 coat protein (input ligand: FMN 200 uM): 15.2 nM
- apparent KD of MS2 coat protein (input ligand: none): 15.6 nM

Sequence: GGUACUAACACGAUAGUGUUAGUACUAUAAGCUUGUGUUACAUGAGGAUCACCCAUGUCCUCAUAGGCUCGUCUUAG [Mat - Sensor v3 - Turn-off var 2 - D85] (puzzle: Sensor v3, turn-off variant 2)
- apparent KD of MS2 coat protein [3]: 87.1 nM
- apparent KD of MS2 coat protein [2]: 23.1 nM
- apparent KD of MS2 coat protein [4]: 106 nM

Sequence: CCCAUGUCAGGAUAUUAAUUGGACGGGAAAUCCCGCCCACUUGAGAAGGGACAUGAGGAUCACCCAUGUAAAAC [Esatedbe] (Eterna round: R97, puzzle: Exclusion 4)
- apparent KD of MS2 coat protein (input ligand: FMN 200 uM): 54.7 nM
- apparent KD of MS2 coat protein (input ligand: none): 385 nM

Sequence: UGUGUGUCAGGAUAUGUGUGUGUGUGUGAAAGCGCGCGCGCGCAGAAGGGACAUGAGGAUCACCCAUGUGCGCG [-35.3, -34.3 kcal, A 20%, 6bis-6] (Eterna round: R97, puzzle: Exclusion 4)
- apparent KD of MS2 coat protein (input ligand: FMN 200 uM): 484 nM
- apparent KD of MS2 coat protein (input ligand: none): 220 nM

Sequence: GCAUGUCUUAAGGAUAUGCUAAGGCGUGAGCCAGCAGAAGGUAAGACAUGAGGAUCACCCAUGUUUUCCUAAAA [jl-ex6-4.33 ViennaUCT mod] (Eterna round: R97, puzzle: Exclusion 6)
- apparent KD of MS2 coat protein (input ligand: FMN 200 uM): 68.5 nM
- apparent KD of MS2 coat protein (input ligand: none): 18.9 nM

Sequence: GCUGCGCGAGGAUAUGCGGUUCGCGCGGUGGCCGCUGGCGGACAUGAGGAUCACCCAUGUAGAAGGCGUGCGGG [Apr-15 SS2-60] (puzzle: Exclusion 2)
- apparent KD of MS2 coat protein [2]: 11.7 nM

Sequence: GACUGCCGAGGAUAUACAUGAGGAUCACCCAUGUGCUUCAGUAUCGAAAGAUGCAUGGGUAGAAGGCGGUAGUC [LRO-Excl3-10] (puzzle: Exclusion 3)
- apparent KD of MS2 coat protein [2]: 172 nM

Sequence: AGGUGACAUGAGGAUCACCCAUGUAAGGAUAUACGGUUAGUGGAGAGUUGGAGGAGAGGUAGAAGGUACGGAGC [JR_Exclu1_Sub060] (puzzle: Exclusion 1)
- apparent KD of MS2 coat protein [2]: 174 nM

Sequence: ACUAGCUUUUUGCAUUUUAGGUUUGUUGCUUCGUAUGUAACAUGAGGAUCACCCAUGUAUUACUGAUGUCGUCGUUU [JR_SV3TOV2_Sub090] (Eterna round: R96, puzzle: Sensor v3, turn-off variant 2)
- apparent KD of MS2 coat protein (input ligand: FMN 200 uM): 18.5 nM
- apparent KD of MS2 coat protein [1]: 15.5 nM
- apparent KD of MS2 coat protein (input ligand: none): 20.3 nM

Sequence: CUGCUCCGUGUAGGAUAUCCGUGCAACCAAUACGGAGAAGGACAUGAGGAUCACCCAUGUAUGUUAUUAUCACGUGAAGCGUCC [Design 24] (Eterna round: R96, puzzle: Exclusion NG 1)
- apparent KD of MS2 coat protein (input ligand: FMN 200 uM): 23.1 nM
- apparent KD of MS2 coat protein [1]: 17 nM
- apparent KD of MS2 coat protein (input ligand: none): 24.3 nM

Sequence: CGGAUGUUAGGAUAUUAGUAGUAGUCAGAAUAGACUAUUACUGAGAAGGAACAUGAGGAUCACCCAUGUAUCCG [Eli x4 4.20] (Eterna round: R97, puzzle: Exclusion 4)
- apparent KD of MS2 coat protein (input ligand: FMN 200 uM): 47.4 nM
- apparent KD of MS2 coat protein (input ligand: none): 17.7 nM

Sequence: GAUUACACAAGCUUUAGGGACAUGAGGAUCACCCAUGUUCGUCUUAUUGAUCUAGGUACGCUGACGUACCUAGAUCU [JL-sv1-2.31 Brourd mod] (puzzle: Sensor v3, turn-off variant 1)
- apparent KD of MS2 coat protein [3]: 14.5 nM
- apparent KD of MS2 coat protein [2]: 84.9 nM
- apparent KD of MS2 coat protein [4]: 13.2 nM

Sequence: AACAUGUCAGGAUAUAUGACAUGGCUCUUCGGAGCAAGCUCAUAGAAGGGACAUGAGGAUCACCCAUGUAGAGC [Ex4-3: 21] (puzzle: Exclusion 4)
- apparent KD of MS2 coat protein [2]: 21.7 nM

Sequence: AGUACUAACACGGUUGUGUUAGUACAAUAAGCUUGUGAAACAUGAGGAUCACCCAUGUCCUCAUAAGCUCGUCUUAU [salish99_TOv2_r3_070] (puzzle: Sensor v3, turn-off variant 2)
- apparent KD of MS2 coat protein [3]: 16.1 nM
- apparent KD of MS2 coat protein [2]: 954 nM
- apparent KD of MS2 coat protein [4]: 15.1 nM

Sequence: UUUACAAGCUUUUGAUCCCACAUGAGGAUCACCCAUGUUGCUGCCGUGAGGUAGCUUUUAACAAAUGCUCGUCUUAU [JL TOV1 3.37] (Eterna round: R97, puzzle: Sensor, turn-off variant 1)
- apparent KD of MS2 coat protein (input ligand: FMN 200 uM): 590 nM
- apparent KD of MS2 coat protein (input ligand: none): 690 nM

Sequence: ACAUGAGGAUCACCCAUGUAAACAUAAUGGCUGAUGUAGAGUCAGGAUAUGCGUGGCUAACAAUCGCAGAAGGGACAAGACUGG [Deportation 30 - Jieux - Exclusion NG 3] (Eterna round: R96, puzzle: Exclusion NG 3)
- apparent KD of MS2 coat protein (input ligand: FMN 200 uM): 22.2 nM
- apparent KD of MS2 coat protein [1]: 23.1 nM
- apparent KD of MS2 coat protein (input ligand: none): 25 nM

Sequence: AAUCCACAUGAGGAUCACCCAUGUGAGGAUAUGAUACUAUGUACUUCGGUACAUAGUAUCAGAAGGCACAUAAA [Ex1-3: 51] (Eterna round: R96, puzzle: Exclusion 1)
- apparent KD of MS2 coat protein (input ligand: FMN 200 uM): 153 nM
- apparent KD of MS2 coat protein [1]: 25.8 nM
- apparent KD of MS2 coat protein (input ligand: none): 27.8 nM

Sequence: CAUGUGCGAAAGGAUAUGGCCCGCGGAUCAGCUCCAGAAGGUUCGACAUGAGGAUCACCCAUGUGAUCUGGUAA [Eternabot (L1) Solution 61] (Eterna round: R97, puzzle: Exclusion 6)
- apparent KD of MS2 coat protein (input ligand: FMN 200 uM): 139 nM
- apparent KD of MS2 coat protein (input ligand: none): 369 nM

Sequence: ACAUGUAAUGUAGGAUAUUUUACACAUGAGGAUCACCCAUGUGACCGGAGGCUUUACUAUGAGUAAGAGAAGGGUAUGUACAUG [Ex NG2 #62] (Eterna round: R96, puzzle: Exclusion NG 2)
- apparent KD of MS2 coat protein (input ligand: FMN 200 uM): 90.5 nM
- apparent KD of MS2 coat protein [1]: 56.6 nM
- apparent KD of MS2 coat protein (input ligand: none): 86.7 nM

Sequence: CACCGUUACAGAGGAUAUGACACAUGAGGAUCACCCAUGUAAUAAAUGAGAAUUUCGAAUGUAACUCAGAAGGCUGGAAUCGGC [Ostricism 77 - Jieux - Exclusion NG 2] (Eterna round: R96, puzzle: Exclusion NG 2)
- apparent KD of MS2 coat protein [1]: 22.1 nM

Sequence: GCAGCAAACCCAAUUAAAACCACAUGAGGAUCACCCAUGUCUCAGGAUAUGGUCUGGAUUACAGGCCAGAAGGGAGAAAGCUGC [Eli exng3 - 052] (Eterna round: R96, puzzle: Exclusion NG 3)
- apparent KD of MS2 coat protein (input ligand: FMN 200 uM): 16.2 nM
- apparent KD of MS2 coat protein [1]: 10.7 nM
- apparent KD of MS2 coat protein (input ligand: none): 17.7 nM

Sequence: GUGACUCAGCAGGAUAUACGCGCGAGUGCGUAAGUAGAAGGGUUGACAUGAGGAUCACCCAUGUAGAACCACAC [Eternabot (L2) Solution 18] (Eterna round: R97, puzzle: Exclusion 6)
- apparent KD of MS2 coat protein (input ligand: FMN 200 uM): 19.9 nM
- apparent KD of MS2 coat protein (input ligand: none): 18.4 nM

Sequence: ACGCCACAUGAGGAUCACCCAUGUGAGGAUAUGGCCUGUUUGGCGUGUGCUGGCUCUGUCAGAAGGCGCGUGGG [salish99_ex1_r4_039] (Eterna round: R97, puzzle: Exclusion 1)
- apparent KD of MS2 coat protein (input ligand: FMN 200 uM): 45.4 nM
- apparent KD of MS2 coat protein (input ligand: none): 42.3 nM

— the supplement of paper PMC9170038
